According to the DeepSol protein solubility set:

test: soluble on expression in E. coli; label from the status in PepcDB or PDB records

Sequence | soluble on expression in E. coli
MEKRKHFTPEQKAKIVIEVIKGERTLNEIAAEYGIHPNLLSRWKTEFISNAGRVFSKETDEVEKVKQSYEKEKDELLKQIGQLSYEVAWLKKKSGLL | not soluble
MGSDKIHHHHHHMSQFIDILRQHLADFQWRYAHQITPEIQDAIHAMLSCRCNTARVSCCEQQREFPLSCGHRSCPQCQHGTTCDWLSKQQAKLLPVNYFMVTFTLPFELRAIAKSQPDLLYHALFTVAASVLKDFAVRSPKLSGDIGFTGVLHTYSRRRDYHPHLHCIIPAGSYHPGKRQWRKCQTHYLFNAFNLAKVWRARLLTYLSDRLQLKLPH | not soluble
MGSDKIHHHHHHMGKVLFVSGIDTDIGKSVATGYYARYLMQLGYSVITQKMVQTGCCDISSDILIHRKIQGVELADEDRKGETCCYLFDYPCSPYLAACLQNTYIDEKTIEKYTALLAQKYDYVLLEGAGGLMVPYAEGKTTLDYITAHNYPLILVTSGRLGSINHTLLSLEVCAHQNINVDTLIYNLYPPTDKLITQDTQQYFKSYLAKRFPTTKFMLMQKIDF | not soluble
MSLAFVPHVPRHSRGDNPPSASTASPAVLTLTGERTIPDLDIENYWFRRHQVVYQRLAPRCTARDVLEAGCGEGYGADLIACVARQVIAVDYDETAVAHVRSRYPRVEVMQANLAELPLPDASVDVVVNFQVIEHLWDQARFVRECARVLRGSGLLMVSTPNRITFSPGRDTPINPFHTRELNADELTSLLIDAGFVDVAMCGLFHGPRLRDMDARHGGSIIDAQIMRAVAGEGHHHHHH | not soluble
GGGVKAFAFIGALQVLEENGFSFTRVAGTSAGAIFASLVCSGYRSDELFSIMEQLDGKMFKDGGKVMPFPFAKWLRLYFKLGMYKGDQLEKWLIQVLGHKGVSTFADLPKGALKIVASDISRGRLIVLPDDLKDYGLIPERFSVARAVRMSCGIPYFFQPVKLYNRKRRGERSYVVDGGILSNFPIWL | not soluble
MAYNSNSNNNNNNIVVVFDFDKTIIDVDSDNWVIDELGFTDLFNQLLPTMPWNTLMDRMMKELHDQGKTIEEIKQVLRTIPIHPRVVPAIKSAHDLGCELRIVSDANMFFIETIVEHLGISELFSEINSNPGYVDERGTLKISPYHDFTKSPHSCSCGTCPPNMCKGLIIERIQQSLAKEGKKKMIYLGDGAGDYCPSLKLNTEDYVMPRKNFPVWDLISQNPMLIKAAIREWTDGQSMEMILIGTIEEIRLEEEKEKMLTSAENNCKMQTISIGINNVHHEPILPRALRVSQSS | soluble
EVQLLESGGGLVQPGGSLRLSCAASGFTFEEYAMLWVRQAPGKGLEWVSGINARGYTTYYADSVKGRFTISRDNSKNTLYLQMNSLRTEDTAVYYCAKPWYPFMASKGSEFDYWGQGTLVTVSSAAALEIKRASQPELAPEDPEDVEHHHHHH | soluble
MGSDKIHHHHHHMKFPRIGLPKEKVIELINEKTKKDLTFSSGKILGSMCTMPHDLAIEVYTKYIDRNLGDPGLHPGTRKIEEEVIEMISDLLHLEKGHGHIVSGGTEANILAVRAFRNLSDVEKPELILPKSAHFSFIKAGEMLGVKLVWAELNPDYTVDVRDVEAKISDNTIGIVGIAGTTGLGVVDDIPALSDLARDYGIPLHVDAAFGGFVIPFAKELGYELPDFDFKLKGVQSITIDPHKMGMAPIPAGGIVFRRKKYLKAISVLAPYLAGGKVWQATITGTRPGASVIAVWALIKHLGFEGYMRIVERAMKLSRWFAEEIKKINNAWLVREPMLNIVSFQTKNLKKVERELKSRGWGISAHRGYIRIVFMPHVTREMIEEFLKDLKEVLS | not soluble
MSNTPIELKGSSFTLSVVHLHEAEPEVIRQALEDKIAQAPAFLKHAPVVINVSGLESPVNWPELHKIVTSTGLRIIGVSGCKDASLKVEIDRMGLPLLTEGKEKAVRPAPVEPATPSEPPQNANPITKTRLIDVPVRSGQRIYAPQCDLIVTSHVSAGAELIADGNIHVYGMMRGRALAGASGDREAQIFCTHLTAELVSIAGVYWLSDKIPAEFYGKAARLRLADNALTVQPLN | not soluble
MGHHHHHHSHMSIRNWVTRTPSSSPPITPPASETKIMSPRKALTPVSQKSSQAEACSESRNRVKRRLDSSCLESVKQKCVKSCNCVTELDGQVENLHLDLCCLAGNQEDLSKDSLGPTKSSKIEGAGTSISEPPSPISPYASESCGTLPLPLRPCGEGSEMVGKENSSPENKNWLLAMAAKRKAENPSPRSPSSQTPNSRRQSGKTLPSPVTITPSSMRKICTYFHRKSQEDFCGPEHSTEL | not soluble
MDYCCVGRNNNDSVPREVTLLRVKTLMKMANHPRPGDIIQESLDELNVSLREFARAMEIAPSTASRLLTGKAALTPEMAIKLSVVIGSSPQMWLNLQNAWSLAEAEKTVVVSRLRRLVTQ | not soluble
